One series addresses T1, APG30127-L32-nAPG07433.1 (synthetic).
T1 chain: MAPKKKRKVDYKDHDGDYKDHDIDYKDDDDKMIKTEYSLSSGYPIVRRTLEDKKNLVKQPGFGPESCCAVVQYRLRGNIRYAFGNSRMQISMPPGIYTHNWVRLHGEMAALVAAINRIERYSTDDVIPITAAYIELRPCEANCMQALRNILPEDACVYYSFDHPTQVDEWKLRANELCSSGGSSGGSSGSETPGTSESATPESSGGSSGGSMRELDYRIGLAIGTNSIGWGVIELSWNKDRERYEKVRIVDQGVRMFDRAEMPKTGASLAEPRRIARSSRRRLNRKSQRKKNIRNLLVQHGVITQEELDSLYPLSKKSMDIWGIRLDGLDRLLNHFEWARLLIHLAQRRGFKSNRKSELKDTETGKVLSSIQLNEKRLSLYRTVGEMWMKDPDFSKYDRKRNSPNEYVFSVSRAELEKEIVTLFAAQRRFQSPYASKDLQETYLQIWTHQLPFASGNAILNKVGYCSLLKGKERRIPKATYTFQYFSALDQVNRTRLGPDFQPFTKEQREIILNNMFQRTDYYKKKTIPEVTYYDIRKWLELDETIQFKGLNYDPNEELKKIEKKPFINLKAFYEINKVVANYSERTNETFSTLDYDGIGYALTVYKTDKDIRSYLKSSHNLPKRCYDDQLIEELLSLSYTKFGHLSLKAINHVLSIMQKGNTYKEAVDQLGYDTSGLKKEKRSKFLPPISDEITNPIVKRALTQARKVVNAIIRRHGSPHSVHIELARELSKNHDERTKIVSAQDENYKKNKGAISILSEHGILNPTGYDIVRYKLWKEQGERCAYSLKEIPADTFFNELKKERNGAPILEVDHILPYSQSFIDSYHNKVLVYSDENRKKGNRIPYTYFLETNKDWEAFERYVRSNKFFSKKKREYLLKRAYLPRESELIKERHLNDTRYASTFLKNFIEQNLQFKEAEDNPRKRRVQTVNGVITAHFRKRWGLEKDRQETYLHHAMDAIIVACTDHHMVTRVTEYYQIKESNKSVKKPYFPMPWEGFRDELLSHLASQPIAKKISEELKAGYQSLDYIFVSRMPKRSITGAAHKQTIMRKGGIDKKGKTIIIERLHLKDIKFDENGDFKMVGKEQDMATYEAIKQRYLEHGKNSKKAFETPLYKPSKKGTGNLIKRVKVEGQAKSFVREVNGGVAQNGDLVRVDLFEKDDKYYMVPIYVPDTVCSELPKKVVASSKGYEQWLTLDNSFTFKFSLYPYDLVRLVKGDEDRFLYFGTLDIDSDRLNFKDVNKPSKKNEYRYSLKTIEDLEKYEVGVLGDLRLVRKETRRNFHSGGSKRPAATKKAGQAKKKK
Put plainly: cell_activity; HEK293FT; PAM SEQ 152. To be noted: tags: SV40 NLS, 3xFLAG N-term; nucleoplasmin NLS C-term. In outline:
(§1)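 Editing read out by next-generation sequencing (MiSeq 2×250) of PCR amplicons spanning the target site, analysed for INDELs or % cytosine conversion per position (position 1 nearest PAM).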

The target in another series is T2, APG30126-L32-nAPG07433.1 (synthetic).
T2 chain: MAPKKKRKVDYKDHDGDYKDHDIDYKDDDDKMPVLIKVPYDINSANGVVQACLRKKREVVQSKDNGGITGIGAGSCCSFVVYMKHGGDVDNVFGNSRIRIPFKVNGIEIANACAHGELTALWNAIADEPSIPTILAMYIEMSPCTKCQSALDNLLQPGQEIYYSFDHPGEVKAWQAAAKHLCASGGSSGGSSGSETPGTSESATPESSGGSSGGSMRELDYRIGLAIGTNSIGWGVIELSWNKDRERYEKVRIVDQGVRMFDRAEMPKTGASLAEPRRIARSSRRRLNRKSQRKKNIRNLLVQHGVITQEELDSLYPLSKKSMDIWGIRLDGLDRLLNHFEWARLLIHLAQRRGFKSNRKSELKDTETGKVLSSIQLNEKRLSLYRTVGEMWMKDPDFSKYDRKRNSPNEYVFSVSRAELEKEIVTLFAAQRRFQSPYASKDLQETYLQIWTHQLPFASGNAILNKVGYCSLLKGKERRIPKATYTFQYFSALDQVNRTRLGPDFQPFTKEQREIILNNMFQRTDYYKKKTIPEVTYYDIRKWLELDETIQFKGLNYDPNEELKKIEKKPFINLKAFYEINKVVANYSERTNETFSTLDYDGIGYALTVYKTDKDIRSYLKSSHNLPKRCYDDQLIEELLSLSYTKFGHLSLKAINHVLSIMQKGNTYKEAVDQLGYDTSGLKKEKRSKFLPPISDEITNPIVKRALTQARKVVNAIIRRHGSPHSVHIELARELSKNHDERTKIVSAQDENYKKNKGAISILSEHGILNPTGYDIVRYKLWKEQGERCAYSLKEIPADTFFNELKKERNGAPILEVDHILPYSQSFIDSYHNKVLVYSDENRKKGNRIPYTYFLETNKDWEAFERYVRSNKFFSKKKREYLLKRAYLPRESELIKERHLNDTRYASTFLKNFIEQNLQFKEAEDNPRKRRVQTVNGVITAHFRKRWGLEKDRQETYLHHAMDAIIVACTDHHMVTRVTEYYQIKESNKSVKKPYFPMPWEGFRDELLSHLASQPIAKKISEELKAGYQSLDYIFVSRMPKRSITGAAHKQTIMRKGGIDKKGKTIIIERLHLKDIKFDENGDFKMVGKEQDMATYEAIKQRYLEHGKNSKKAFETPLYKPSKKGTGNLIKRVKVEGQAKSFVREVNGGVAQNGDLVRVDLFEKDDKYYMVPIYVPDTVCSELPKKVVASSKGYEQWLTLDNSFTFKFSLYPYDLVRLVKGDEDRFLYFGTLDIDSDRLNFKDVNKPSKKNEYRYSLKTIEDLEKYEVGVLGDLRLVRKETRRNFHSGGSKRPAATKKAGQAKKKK
Kind of series: cell_activity; HEK293FT; PAM SEQ 152. The conditions noted are these: tags: SV40 NLS, 3xFLAG N-term; nucleoplasmin NLS C-term. In outline:
as §1

B1: SGN000194 sgRNA ; SGN000194 target (ssRNA ; dsDNA)
RNA: GCCGCACAGCAUUCAGGUCGGUCAUAGUUCCAUUAAAGCCAAAAGUGGCUUUGAUGUUUCUAUGAUAAGGGUUUCGACCCGUGGCGUCGGGGAUCGCCUGCCCAUUGAAAUGGGCUUCUCCCCAUUUAUU
DNA 1: GCCGCACAGCATTCAGGTCG
DNA 2: CGACCTGAATGCTGTGCGGC
Take B1: the activity with APG30127-L32-nAPG07433.1 amounted to 9.53 % mutated reads.

B2: SGN000930 sgRNA ; SGN000930 target (ssRNA ; dsDNA)
RNA: GAACAACUCAAAUGGAAAUGAAUAUGUCAUAGUUCCAUGAAAGCCAAAAGUGGCUUUGAUGUUUCUAUGAUAAGGGUUUCGGCCCGUGGCGUCGGGGAUCGCCUGCCCAUUCCGAUGGGCUUCUCCCCAUUUAUU
DNA 1: GAACAACTCAAATGGAAATGAATAT
DNA 2: ATATTCATTTCCATTTGAGTTGTTC
In turn, B2 registered an activity with APG30126-L32-nAPG07433.1 of 1.38 % mutated reads.

Source of the values: patent US20240301385, “DNA MODIFYING ENZYMES AND ACTIVE FRAGMENTS AND VARIANTS THEREOF AND METHODS OF USE” (LIFEEDIT THERAPEUTICS, INC., published 2024).
